# Molecular target: Soluble human CD137 ECD protein (human) (UniProt Q07011)
# Assay: SPR, captured via anti-human kappa, soluble ECD injected
# Chain of Soluble human CD137 ECD protein (human) (Q07011 24-186): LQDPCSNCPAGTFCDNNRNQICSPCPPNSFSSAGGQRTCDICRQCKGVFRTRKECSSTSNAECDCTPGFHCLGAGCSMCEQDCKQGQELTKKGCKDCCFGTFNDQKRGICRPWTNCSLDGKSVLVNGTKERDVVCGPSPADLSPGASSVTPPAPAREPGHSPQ
# Chain of Urelumab (antibody) (VH): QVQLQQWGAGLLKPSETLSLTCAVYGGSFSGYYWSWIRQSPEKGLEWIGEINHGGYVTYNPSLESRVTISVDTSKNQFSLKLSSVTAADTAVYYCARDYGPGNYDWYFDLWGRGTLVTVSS
# Chain of Urelumab (antibody) (VL): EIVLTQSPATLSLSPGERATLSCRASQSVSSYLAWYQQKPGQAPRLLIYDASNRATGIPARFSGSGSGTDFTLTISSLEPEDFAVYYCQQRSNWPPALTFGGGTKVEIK
substance,measurement,value
Urelumab (antibody),Kd,11 nM
same,koff,0.0023 s⁻¹
same,kon,210000 M⁻¹ s⁻¹

# Reference: patent publication US20240132626A1
